Positions count from the first letter of the chain named. Names may count otherwise.
B1: Mss116p (Saccharomyces cerevisiae S288C) (protein)
chain: NHITWAVSRRLYNDGNRDQRNFGRNQRNNNSNRYRNSRFNSRPRTRSREDDDEVHFDKTTFSKLIHVPKEDNSKEVTLDSLLEEGVLDKEIHKAITRMEFPGLTPVQQKTIKPILSSEDHDVIARAKTGTGKTFAFLIPIFQHLINTKFDSQYMVKAVIVAPTRDLALQIEAEVKKIHDMNYGLKKYACVSLVGGTDFRAAMNKMNKLRPNIVIATPGRLIDVLEKYSNKFFRFVDYKVLDEADRLLEIGFRDDLETISGILNEKNSKSADNIKTLLFSATLDDKVQKLANNIMNKKECLFLDTVDKNEPEAHERIDQSVVISEKFANSIFAAVEHIKKQIKERDSNYKAIIFAPTVKFTSFLCSILKNEFKKDLPILEFHGKITQNKRTSLVKRFKKDESGILVCTDVGARGMDFPNVHEVLQIGVPSELANYIHRIGRTARSGKEGSSVLFICKDELPFVRELEDAKNIVIAKQEKYEPSEEIKSEVLEAVTEEPEDISDIVISLISSYRSCIKEYRFSERRILPEIASTYGVLLNDPQLKIPVSRRFLDKLGLSRSPIGKAMFEIRDYSSRDGNNKSYDYDDDSEISFRGNKNYNNRSQNRDYDDEPFRRSNNNRRSFSRSNDKNNYSSRNSNIY
B2: Mss116p (Saccharomyces cerevisiae S288C; T307A) (protein)
chain: B1 chain with T281A
B3: Mss116p (Saccharomyces cerevisiae S288C; R245E) (protein)
chain: B1 chain with R219E
B4: Mss116p (Saccharomyces cerevisiae S288C; Q412A) (protein)
chain: B1 chain with Q386A
B5: Mss116p (Saccharomyces cerevisiae S288C; S305A) (protein)
chain: B1 chain with S279A

What follows are proteins tested on Nc1ncnc2c1ncn2[C@@H]1O[C@H](COP(=O)(O)OP(=O)(O)OP(=O)(O)O)[C@@H](O)[C@H]1O (assay: ATPase assay, free ADP versus time, initial velocities). Details: 37 °C, saturating aI5β intron RNA transcript.
Type: biochemical, Saccharomyces cerevisiae

**Q.** How did the Km turn out when B1 was run?
**A.** The Km was 167 ± 20 µM.

**Q.** What about the kcat of the same protein?
**A.** Its kcat is 0.496 ± 0.0603 s⁻¹.

**Q.** B2 was tested. Which Km did it give?
**A.** The Km was 180 ± 4 µM.

**Q.** What about the kcat of the same protein?
**A.** The kcat was 0.061 ± 0.0045 s⁻¹.

**Q.** With B3 as the protein, how does the Km read?
**A.** Its Km is 554 ± 153 µM.

**Q.** And the kcat?
**A.** The kcat was 8.18 ± 0.08 ^e^, ^f.

**Q.** For B4, which Km is on record?
**A.** The Km was 177 ± 33 µM.

**Q.** And the kcat?
**A.** Its kcat is 0.393 ± 0.0933 s⁻¹.

**Q.** Which Km does the source give for B5 here?
**A.** The Km was 162 ± 16 µM.

**Q.** What about the kcat of the same protein?
**A.** Its kcat is 0.322 ± 0.142 s⁻¹.
